IntAct's records for PubMed 16362034

B1: ETS-like protein pointed (Drosophila melanogaster (Fruit fly)), P51023 (parent)
chain: MELAICKTDLSATKFMLPPALPSSAAIGSSSAVASTASHFLDKAAHELFQLNAINGHLFKSPASSHLNSVGSPSILSQLNGIGNSGNHSGQVSTMRLKKNRKVTFLSSLVESKNIFIKEEPIHGCKDLCSLSDISDHEASLEVPTALPPLTPGTNRKVNEVLKASFASWEKEVQKCNITKDPREWTEEHVIYWLNWAKNEFSLVSMNLDPFYKMKGRAMVDLGKEKFLAITPPFTGDILWEHLDILQKDCEKPNEDIVHGNSFESATTASVCGSDHQVANYPNETHANSNNSSINSRLSMDYVTSAGNSDNKNFHRATPHSHNGYNTSNTHDRINNSTPPQQQQSQQPTVNGSGSASSNNNNSMLPPAVQQSNNENNNTSSSNTNNSSNNNNNSGGSNNSNAGSNNNNNNNNNINFMAAAAIFQHHLKEEPGTQNGNIGGYGGGSNSQNDPTDLSSYGLPAHLAAYGGGSGSGPTGGRSSGGGGDESDYHSTISAQDHQSQQSSGGNGSGGASGGSTGNSNGYLDSSSEFYGSYAGRNRFHDGYPPEFTPYDAQSFQSMGPQPTAMDQWGAAHAHQHPAAYMSTLGLDKGLLGGYTTQGGVPCFTGSGPIQLWQFLLELLLDKTCQSFISWTGDGWEFKLTDPDEVARRWGIRKNKPKMNYEKLSRGLRYYYDKNIIHKTAGKRYVYRFVCDLQNLVGHTPEELVAKYDLKIEKKDVD

Variants of: B1
Details: with erka_drome rl

Variant	effect of a mutation on the interaction
F234A	decreasing interaction
T151A	disrupting interaction
L228R	decreasing interaction
